According to patent publication US20210122824A1 (ADAGENE, published 2021):
Substitutions are numbered along the chain they refer to. Each block holds one binder with its values, some of them ahead of it.

Key:
[1] = biological target: T1, rhesus PD-L1 expressed on HEK293F cells (rhesus, UniProt F6VEW6 19-290); assay: flow cytometry on transfected HEK293F cells, 100 nM antibody
T1 construct: whole, on cells

[2] = biological target: mouse PD-L1 (construct not stated) (mouse, UniProt Q9EP73 19-238, limits assumed); assay: SPR (Biacore)
[3] = biological target: T2, human TIM3 expressed on HEK293F cells (human, UniProt Q8TDQ0 22-301); assay: flow cytometry, HEK293F cells transiently expressing the target, 100 nM antibody, PE anti-human Fc; Mean (PE-A against FITC-A, GFP surrogate)
T2 construct: whole, on cells

[4] = biological target: T3, human LAG3 expressed on HEK293F cells (human, UniProt P18627 23-525); assay: as above
T3 construct: whole, on cells
T3 sequence (looked up): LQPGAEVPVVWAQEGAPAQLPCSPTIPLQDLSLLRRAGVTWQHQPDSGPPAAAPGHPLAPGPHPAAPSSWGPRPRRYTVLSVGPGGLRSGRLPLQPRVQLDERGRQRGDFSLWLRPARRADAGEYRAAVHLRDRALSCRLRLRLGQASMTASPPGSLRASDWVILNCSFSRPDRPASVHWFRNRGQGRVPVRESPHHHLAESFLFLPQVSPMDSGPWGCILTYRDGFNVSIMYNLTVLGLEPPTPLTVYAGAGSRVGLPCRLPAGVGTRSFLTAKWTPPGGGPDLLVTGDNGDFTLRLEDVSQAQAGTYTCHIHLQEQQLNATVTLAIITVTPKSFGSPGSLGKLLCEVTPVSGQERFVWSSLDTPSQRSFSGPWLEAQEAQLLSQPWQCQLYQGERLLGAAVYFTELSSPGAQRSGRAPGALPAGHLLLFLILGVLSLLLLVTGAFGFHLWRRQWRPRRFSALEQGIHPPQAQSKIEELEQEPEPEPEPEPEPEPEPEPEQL

[5] = biological target: T4, human CTLA4 expressed on HEK293F cells (human, UniProt P16410 36-223); assay: as above
T4 construct: whole, on cells

[6] = biological target: T2, human TIM3 expressed on HEK293F cells; assay: flow cytometry on transfected HEK293F cells
[7] = biological target: T5, human B7-H3 expressed on HEK293F cells (human, UniProt Q5ZPR3 29-534); assay: flow cytometry on transfected HEK293F cells
T5 construct: whole, on cells
T5 sequence (looked up): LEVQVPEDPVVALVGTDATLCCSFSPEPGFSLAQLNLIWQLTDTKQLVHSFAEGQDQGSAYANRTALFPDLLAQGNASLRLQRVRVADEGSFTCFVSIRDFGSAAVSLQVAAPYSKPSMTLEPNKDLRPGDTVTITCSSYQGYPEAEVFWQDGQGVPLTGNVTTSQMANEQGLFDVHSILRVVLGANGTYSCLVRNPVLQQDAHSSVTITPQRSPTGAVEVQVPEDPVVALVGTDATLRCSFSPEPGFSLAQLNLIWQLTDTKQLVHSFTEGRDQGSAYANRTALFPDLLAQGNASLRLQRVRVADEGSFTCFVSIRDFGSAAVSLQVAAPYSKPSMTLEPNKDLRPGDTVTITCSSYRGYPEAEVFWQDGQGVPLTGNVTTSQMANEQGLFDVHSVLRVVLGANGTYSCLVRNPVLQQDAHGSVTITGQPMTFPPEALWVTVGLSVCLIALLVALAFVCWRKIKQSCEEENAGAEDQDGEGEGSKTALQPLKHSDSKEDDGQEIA

[8] = biological target: T3, human LAG3 expressed on HEK293F cells; assay: flow cytometry on transfected HEK293F cells
[9] = biological target: T4, human CTLA4 expressed on HEK293F cells; assay: flow cytometry on transfected HEK293F cells
[10] = biological target: T6, human PD1 expressed on HEK293F cells (human, UniProt Q15116 25-288); assay: flow cytometry on transfected HEK293F cells
T6 construct: whole, on cells

[11] = biological target: T7, human PD-L1-His6 (Sino Biological #10084-H08H) (human, UniProt Q9NZQ7 19-239); assay: SPR (Biacore T200), antibody captured by anti-human Fc, PD-L1-His6 in solution
T7 construct: bought; not shown: His6 tag

[12] = biological target: T8, human PD-L1-Fc fusion protein (Sino Biological Cat #10084-H02H) (human, UniProt Q9NZQ7 19-239); assay: competition ELISA, PD1-Fc (1 ug/mL) coated, biotinylated PD-L1-Fc mixed with antibody, HRP neutravidin; blocked ligand PD1-Fc
T8 construct: bought; not shown: Fc part of the bought fusion

[13] = biological target: T9, human PD-L1 expressed on cell surface (human, UniProt Q9NZQ7 19-290); assay: blocking by flow cytometry, HEK293F cells expressing full-length human PD-L1, 100 nM antibody then 100 nM biotinylated PD1-His (blocked ligand), Alexa fluor 633 streptavidin; isotype control panel Q2 35.1%
T9 construct: whole, on cells; also called full-length human PD-L1; cell surface PD-L1

[14] = biological target: T10, mouse PD-L1 expressed on HEK293F cells (mouse, UniProt Q9EP73 19-290); assay: flow cytometry, HEK293F cells transiently expressing the target, 100 nM antibody, PE anti-human Fc; Mean (PE-A against FITC-A, GFP surrogate)
T10 construct: whole, on cells

[15] = biological target: T9, human PD-L1 expressed on cell surface; assay: as above
[16] = biological target: T6, human PD1 expressed on HEK293F cells; assay: as above
[17] = biological target: T5, human B7-H3 expressed on HEK293F cells; assay: as above
[18] = biological target: T1, rhesus PD-L1 expressed on HEK293F cells; assay: as above

T6 sequence (Q15116 25-288): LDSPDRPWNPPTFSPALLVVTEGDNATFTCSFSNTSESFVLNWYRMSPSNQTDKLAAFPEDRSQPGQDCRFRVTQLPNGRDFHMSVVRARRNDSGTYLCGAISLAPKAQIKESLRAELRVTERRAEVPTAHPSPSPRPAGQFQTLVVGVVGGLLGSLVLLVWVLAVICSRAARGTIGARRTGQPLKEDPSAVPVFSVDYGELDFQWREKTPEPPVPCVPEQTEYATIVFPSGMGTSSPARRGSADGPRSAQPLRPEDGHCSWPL
T4 sequence (P16410 36-223): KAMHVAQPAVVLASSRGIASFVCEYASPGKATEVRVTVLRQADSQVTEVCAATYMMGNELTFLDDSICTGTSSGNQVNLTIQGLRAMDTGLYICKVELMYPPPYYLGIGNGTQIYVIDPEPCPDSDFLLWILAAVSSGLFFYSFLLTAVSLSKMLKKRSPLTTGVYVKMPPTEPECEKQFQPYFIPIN
T8 sequence (Q9NZQ7 19-239 limits assumed): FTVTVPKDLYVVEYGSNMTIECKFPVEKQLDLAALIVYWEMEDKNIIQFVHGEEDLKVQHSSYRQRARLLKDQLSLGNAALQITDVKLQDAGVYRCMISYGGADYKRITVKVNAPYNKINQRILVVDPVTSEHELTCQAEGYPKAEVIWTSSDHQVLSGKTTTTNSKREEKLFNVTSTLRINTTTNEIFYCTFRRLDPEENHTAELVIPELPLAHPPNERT
T7 sequence (Q9NZQ7 19-239 limits assumed): as above
T9 sequence (Q9NZQ7 19-290): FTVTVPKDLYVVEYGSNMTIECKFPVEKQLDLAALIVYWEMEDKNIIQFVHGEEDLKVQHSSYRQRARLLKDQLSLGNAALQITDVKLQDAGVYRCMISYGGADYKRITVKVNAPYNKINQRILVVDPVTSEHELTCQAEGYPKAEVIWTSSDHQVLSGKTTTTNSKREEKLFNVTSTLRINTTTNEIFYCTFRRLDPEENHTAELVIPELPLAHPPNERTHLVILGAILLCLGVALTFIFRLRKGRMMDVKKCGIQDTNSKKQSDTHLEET
mouse PD-L1 (construct not stated), sequence (Q9EP73 19-238 limits assumed): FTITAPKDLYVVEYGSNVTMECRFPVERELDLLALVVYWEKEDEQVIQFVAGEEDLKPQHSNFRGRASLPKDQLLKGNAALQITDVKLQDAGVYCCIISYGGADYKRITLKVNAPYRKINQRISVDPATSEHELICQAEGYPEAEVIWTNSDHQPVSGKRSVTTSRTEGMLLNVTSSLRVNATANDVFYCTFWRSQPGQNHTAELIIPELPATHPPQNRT
T10 sequence (Q9EP73 19-290): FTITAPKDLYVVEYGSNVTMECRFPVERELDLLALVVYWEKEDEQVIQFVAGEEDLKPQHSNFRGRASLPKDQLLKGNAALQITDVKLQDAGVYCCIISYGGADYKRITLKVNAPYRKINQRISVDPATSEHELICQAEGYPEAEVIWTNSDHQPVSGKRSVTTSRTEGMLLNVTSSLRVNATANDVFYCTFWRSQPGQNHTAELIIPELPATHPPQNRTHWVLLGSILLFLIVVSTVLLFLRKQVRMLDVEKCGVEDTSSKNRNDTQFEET

- binding result [1]: binds
- binding result [2]: no binding
- Mean [3]: 2480
- Mean [4]: 2830
- Mean [5]: 3460
- binding result [6]: no binding (tested: 100 nM)
- binding result [7]: no binding (tested: 100 nM)
- binding result [8]: no binding (tested: 100 nM)
- binding result [9]: no binding (tested: 100 nM)
- binding result [10]: no binding (tested: 100 nM)
- Kd [11]: 0.399 nM
- koff [11]: 0.000179 s⁻¹
- kon [11]: 448000 M⁻¹ s⁻¹
- IC50 (read off the curve) [12]: ~6 nM
- Q2 (percent of cells positive for GFP and for the APC signal of PD1-His, antibody present) [13]: 0.29%
- Mean [14]: 2470
- Mean [15]: 227000
- Mean [16]: 2570
B1: TY21418 (antibody, V domains shown)
VH: EVQLVESGGGLVQPGGSLRLSCAASGYTFSNYGIHWVRQAPGKGLEWIGWIYPSGGGTKYAQKFQGRVTISRDNSKNTLYLQLNSLRAEDTAVYYCAREGGGYGYALDYWGQGTLVTVSS
VL: DIQLTQSPSSLSASVGDRVTITCRASQGVSSYLAWYQQKPGKAPKLLIYDASNLETGVPSRFSGSGSGTDFTLTISSLQPEDFATYYCQQYDAWPYTFGQGTKVEIKR
notes: IgG1 (wild type) made from Fab B13002, from HEK293F cells

- binding result [2]: no binding
- Mean [3]: 2310
- Mean [17]: 2380
- Mean [4]: 3390
- Mean [5]: 2330
- binding result [6]: no binding (tested: 100 nM)
- binding result [7]: no binding (tested: 100 nM)
- binding result [8]: no binding (tested: 100 nM)
- binding result [9]: no binding (tested: 100 nM)
- binding result [10]: no binding (tested: 100 nM)
- Kd [11]: 0.465 nM
- koff [11]: 0.000143 s⁻¹
- kon [11]: 307000 M⁻¹ s⁻¹
- IC50 (read off the curve) [12]: ~6 nM
- Q2 (percent of cells positive for GFP and for the APC signal of PD1-His, antibody present) [13]: 0.58%
- Mean [14]: 2500
- Mean [15]: 219000
- Mean [18]: 201000
- Mean [16]: 3110
B2: TY21419 (antibody, V domains shown)
VH: B1 VH
VL: B1 VL with V29I, S31P, Y32W, L54R, E55A, V58I, A93S
notes: IgG1 (wild type) made from Fab B13004, from HEK293F cells

- Mean [3]: 4660
- Mean [17]: 3780
- Mean [4]: 4630
- Mean [5]: 4570
- binding result [6]: no binding (tested: 100 nM)
- binding result [7]: no binding (tested: 100 nM)
- binding result [8]: no binding (tested: 100 nM)
- binding result [9]: no binding (tested: 100 nM)
- binding result [10]: no binding (tested: 100 nM)
- IC50 (read off the curve) [12]: ~6 nM
- Q2 (percent of cells positive for GFP and for the APC signal of PD1-His, antibody present) [13]: 1.53%
- Mean [18]: 164000
- Mean [16]: 3710
B3: TY21420 (antibody, V domains shown)
VH: EVQLVESGGGLVQPGGSLRLSCAASGYSISSGYYWGWIRQAPGKGLEWIGIIYPSGGGTNYAQKFQGRVTISRDNSKNTLYLQLNSLRAEDTAVYYCARGGGLGFDYWGQGTLVTVSS
VL: DIQLTQSPSSLSASVGDRVTITCRASQTIPSFLNWYQQKPGKAPKLLIYAASSLQSGVPSRFSGSGSGTDFTLTISSLQPEDFATYYCQHYTSWPRQFTFGQGTKVEIKR
notes: IgG1 (wild type) made from Fab B15016, from HEK293F cells
